The supplement of paper PMC10567573

B1: MFF (parent)
chain: DDLTVVDAASLRRQIIKLNRRLQL

Variants of: B1
Assay: protein stability index of a GFP-peptide fusion (GPS, HEK-293T) (PSI 1-6); higher = more stable
Details: c terminus: a fixed tail appended
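Note: lentivirally expressed fusions sorted by FACS into six bins by GFP to DsRed ratio, PSI derived from sequencing read proportions per bin multiplied by bin number.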

Protein stability index: each site, then its substitutions
I15: L 2.23; G 3; Y 2.57; E 3.83; N 2.71; F 2; D 3.96; Q 3.66; W 2.34; S 3.74; A 2.43; R 3.71; T 2.94; V 3.05; P 4.26; K 3.5; M 1.87
I16: D 2.85; A 2.48; G 1.64; F 3.4; N 2.8; R 3.58; Y 2.97; P 3.66; C 1.69; E 1.88; H 2.26; S 1.52; Q 1.98; T 1.92; L 2.19; M 1.67
L11: T 3.39; C 2.16; I 2.72; E 3.7; R 3.91; H 3.19; M 2.51; G 3.84; S 3.73; N 2.59; A 2.33; Y 2.82; Q 3.24; V 3.05; F 2.48; K 3.28; D 3.79; W 2.84; P 3.33
R21: P 2.99; C 1.95; W 1.91; K 1.88; H 1.6; N 2.46; F 2.33; E 1.46; A 1.57; Y 1.94; L 1.33; T 1.91; M 1.14; Q 1.84; G 1.84; D 1.73; S 2.98; V 1.79
R12: D 2.5; W 1.92; M 1.64; Y 1.9; V 2.06; H 2.58; A 2.07; N 2.42; C 1.95; K 2.01; G 1.85; I 1.23; P 2.51; T 1.73; S 2.1; F 1.99; L 1.67; Q 2.13
K17: Q 1.57; G 1.99; Y 1.89; T 2.47; R 2.24; C 2.44; D 1.85; L 2.37; P 3.72; H 2.08; V 1.66; N 2.2; I 1.85; A 1.01; S 2.76; W 1.74
N19: E 3; T 2.68; W 2.86; P 2.33; V 2.25; K 1.94; F 2.16; Y 1.85; S 2.38; D 3.79; I 2.02; H 1.75; M 1.74; C 3.04; Q 2.01; R 1.76
R13: C 2.22; L 2.56; D 2.27; V 2.55; Y 1.7; M 2.54; A 2.88; F 1.69; G 2.14; Q 2.06; T 1.85; K 2.17; N 2.21; E 2.42; H 1.95; I 1.41; S 2.39; P 2.56
L18: H 3; I 3.42; Y 3.26; W 1.84; S 3.04; A 1.86; D 4.13; T 2.89; R 3.73; V 1.95; N 3.39; P 3.42; G 2.48; F 3.41; M 2.38; K 3.31; C 1.62
Q14: S 2.11; R 2.58; F 1.51; P 3.56; N 2.31; Y 1.54; A 1.82; G 2.5; M 1.04; K 2.23; I 2.3; C 2.27; L 2.45; D 2.16; E 1.78; T 3.2; H 1.57
L22: C 1.91; T 2.62; G 3.13; H 2.95; S 3.6; N 3.78; E 2.77; M 3.02; Q 3.21; P 3.52; R 3.01; K 3.74; Y 2.7; D 3.95; F 2.36; V 2.61; A 3.25; W 2.4; I 1.99
S10: W 3.84; T 1.61; V 1.64; L 1.24; P 2.89; M 1.42; N 2.28; Y 1.69; Q 2.28; R 2.83
L24: N 2.35; M 1.71; E 2.23; S 2.42; P 2.89; T 2.38; A 2.29; C 2.06; Y 1.72; V 3.01; D 2.77; H 2.21; W 1.94; Q 2.89; I 2.32; R 2.74; G 2.56; K 2.99; F 1.8
R20: H 2.26; W 1.37; C 2.06; Y 1.74; K 1.02; V 1.9; I 2.07; M 2.21; Q 1.85; A 1.9; S 1.96; T 2.76; E 2.02; G 2.04; D 2.82; N 2.4; L 2.37; F 2.43; P 2.79
Q23: S 2.63; D 2.33; I 2.14; F 2.32; T 2.08; V 1.34; R 2.23; H 1.5; N 2.31; E 2.5; A 1.57; C 1.91; L 2.15; M 2.43; G 2.5; P 2.62; K 2.38
